Reference: US20260055200A1, “COMBINATION THERAPIES” (Alligator Bioscience AB, priority 2022, published 2026)

System: metastatic pancreatic ductal adenocarcinoma
Experiment: OPTIMIZE-1 anti-tumour activity per RECIST v. 1.1 (ORR, BOR, DCR, DoR, time to progression, PFS, OS)
Type: in vivo, human
[1] = 450 μg/kg mitazalimab, N = 5, Table 42
[2] = 450 μg/kg mitazalimab, N = 5, safety set, Table 25
[3] = 900 μg/kg mitazalimab + mFOLFIRINOX, FAS N = 23, futility analysis, responses need not be confirmed
[4] = 900 μg/kg mitazalimab + mFOLFIRINOX, FAS N = 57
[5] = 900 μg/kg mitazalimab + mFOLFIRINOX, FAS N = 57, including unconfirmed responses
[6] = 900 μg/kg mitazalimab + mFOLFIRINOX, FAS N = 57, 95% CI (5.8-9.4)
[7] = 900 μg/kg mitazalimab + mFOLFIRINOX, FAS N = 57, first block of Table 49
[8] = 900 μg/kg mitazalimab + mFOLFIRINOX, FAS N = 57, second block of Table 49
[9] = 900 μg/kg mitazalimab + mFOLFIRINOX, FAS, n = 18
[10] = 900 μg/kg mitazalimab, N = 23, FAS, data cut-off 2022 Dec. 8
[11] = 900 μg/kg mitazalimab, N = 38, safety set, Table 25

Protocol: The interim analysis was based on objective response rate (ORR) observed for all patients dosed at the mitazalimab RP2D. The interim analysis included efficacy data up to 17 weeks of study treatment (8 cycles for mFOLFIRINOX and 4 cycles for gemcitabine plus nab-paclitaxel).
A CT scan is performed at screening (within 28 days of first dose), 9 weeks after start of study treatment (end of cycle 4 for mFOLFIRINOX combination and at end of Cycle 2 for gemcitabine plus nab-paclitaxel treatment) and thereafter at every 8th week assuming no treatment delays. Additional CT scans may be performed at the discretion of the Investigator at unscheduled visits. The CT scans were evaluated according to RECIST v. […] Patients with response (PR or CR) can have a confirmatory CT scan at least 4 weeks later to confirm the response.
The evaluation of tumour response was done according to RECIST v. 1.1 by the investigational sites using CT scans according to Example 3 RECIST v. […] Patients with PD can discontinue study treatment. However, patients with suspected progression are allowed to continue on treatment if they are considered to be clinically stable in the opinion of the Investigator until clinical or radiological progression is documented.
For the interim analysis, the ORR was based on the response evaluation after 8 cycles for mitazalimab in combination with mFOLFIRINOX or 4 cycles for mitazalimab in combination with gemcitabine plus nab-paclitaxel (i.e., approximately 4 months after first dose). […] In addition, ORR was presented for each study visit. Patients not evaluable for ORR and who completed at least 2 cycles were considered as non-responders.
All secondary efficacy endpoint were presented using descriptive statistics. Best Overall Response (BOR) for each patient will be defined as the best response from RECIST v. 1.1 categories CR, PR, SD and PD at any time during the study. Disease control rate will be defined as either CR, PR or SD at each visit as determined by RECIST v. […] The duration of response (DoR) was defined as number of days from initial response of CR or PR to progressive disease or death due to underlying disease, whichever came first. Duration of Stable Disease (SD) was defined as number of days from first dose of mitazalimab to progressive disease or death, whichever came first. Time to next anti-cancer therapy was defined as number of days from the time from first dose of mitazalimab to next treatment initiated.

B1: Mitazalimab: agonistic, human monoclonal (IgG1) antibody targeting CD40 (antibody, chains of the INN, looked up, V domains shown)
VH: EVQLLESGGGLVQPGGSLRLSCAASGFTFSTYGMHWVRQAPGKGLEWLSYISGGSSYIFYADSVRGRFTISRDNSENALYLQMNSLRAEDTAVYYCARILRGGSGMDLWGQGTLVTVSS
VL: QSVLTQPPSASGTPGQRVTISCTGSSSNIGAGYNVYWYQQLPGTAPKLLIYGNINRPSGVPDRFSGSKSGTSASLAISGLRSEDEADYYCAAWDKSISGLVFGGGTKLTVL
Discontinued study: Death due to disease progression, number of patients [1]: 4
Discontinued study: Death due to disease progression, percentage relative to number discontinued [1]: 80.0%
Discontinued treatment: Death, number of patients [1]: 0
Discontinued treatment: Death, percentage relative to number discontinued [1]: 0.0%
Discontinued treatment: No longer clinically benefiting, number of patients [1]: 0
Discontinued treatment: No longer clinically benefiting, percentage relative to number discontinued [1]: 0.0%
Discontinued treatment: Progressive disease, number of patients [1]: 4
Discontinued treatment: Progressive disease, percentage relative to number discontinued [1]: 80.0%
Discontinued study: Death due to disease progression, number of patients [2]: 2
Discontinued study: Death due to disease progression, percentage of patients [2]: (40.0) %
Discontinued treatment: Clear clinical deterioration, number of patients [2]: 0
Discontinued treatment: Clear clinical deterioration, percentage of patients [2]: (0.0) %
Discontinued treatment: Death due to disease progression, number of patients [2]: 2
Discontinued treatment: Death due to disease progression, percentage of patients [2]: (40.0) %
Discontinued treatment: Progressive disease, number of patients [2]: 2
Discontinued treatment: Progressive disease, percentage of patients [2]: (40.0) %
Disease control rate (FAS) (900 μg/kg Mitazalimab (N = 57) with mFOLFIRINOX, CR, PR or SD as best overall response, RECIST 1.1): 44 (77.2)
Disease control rate (CR, PR or SD), % (900 μg/kg mitazalimab + mFOLFIRINOX, FAS N = 23, futility analysis): (91.3) %
Best Overall Response: Partial response, % [3]: (52.2) %
Best Overall Response: Progressive disease, % [3]: (8.7) %
Best Overall Response: Stable disease, % [3]: (39.1) %
Responders (complete or partial response, RECIST 1.1), % [3]: (52.2) %
BOR: Not evaluable, number of patients [4]: 1
BOR: Not evaluable, percentage of patients [4]: (1.8) %
Time to progression: Censored patients, % [4]: (54.4) %
Time to progression: Patients with event, % [4]: (45.6) %
BOR: Complete response, number of patients [5]: 0
BOR: Complete response, percentage of patients [5]: (0.0) %
BOR: Partial response, number of patients [5]: 25
BOR: Partial response, percentage of patients [5]: (43.9) %
BOR: Progressive disease, number of patients [5]: 12
BOR: Progressive disease, percentage of patients [5]: (21.1) %
BOR: Stable disease, number of patients [5]: 19
BOR: Stable disease, percentage of patients [5]: (33.3) %
ORR: Confidence Interval of responders (two-sided exact binomial 90%) [5]: 32.6-55.6
ORR: Responders, number of patients [5]: 25
ORR: Responders, percentage of patients [5]: (43.9) %
Progression-free survival: Median time to event [6]: 7.2 months
Time to progression: Median time to event [6]: 7.2 months
Progression-free survival: Censored patients, % [7]: (52.6) %
Progression-free survival: Patients with event, % [7]: (47.4) %
Overall survival: Censored patients, % [8]: (78.9) %
Overall survival: Patients with event, % [8]: (21.1) %
Duration of response: Censored patients, % [9]: (72.2) %
Duration of response: Patients with event, % [9]: (27.8) %
Time to response: Median time to event (900 μg/kg mitazalimab + mFOLFIRINOX, FAS, n = 18, 95% CI (1.9-3.7)): 2.2 months
Duration of response: Median time to event (900 μg/kg mitazalimab + mFOLFIRINOX, FAS, n = 18, 95% CI (5.5; NE)): 8.7 months
Discontinued study: Death due to disease progression, number of patients [10]: 1
Discontinued study: Death due to disease progression, percentage of patients [10]: (4.3) %
Discontinued treatment: Clear clinical deterioration, number of patients [10]: 1
Discontinued treatment: Clear clinical deterioration, percentage of patients [10]: (4.3) %
Discontinued treatment: Death due to disease progression, number of patients [10]: 1
Discontinued treatment: Death due to disease progression, percentage of patients [10]: (4.3) %
Discontinued treatment: Progressive disease, number of patients [10]: 2
Discontinued treatment: Progressive disease, percentage of patients [10]: (8.7) %
Discontinued study: Death due to disease progression, number of patients [11]: 1
Discontinued study: Death due to disease progression, percentage of patients [11]: (2.6) %
Discontinued treatment: Clear clinical deterioration, number of patients [11]: 1
Discontinued treatment: Clear clinical deterioration, percentage of patients [11]: (2.6) %
Discontinued treatment: Death due to disease progression, number of patients [11]: 1
